# Test results taken from patent publication US20230002480A1.
# Legend:
# Assay in all cases: cell-based or functional assay
# [1] = target: HIV-1 Env of pseudovirus A07412M1.vrc12 (HIV-1)
# [2] = target: HIV-1 Env of pseudovirus BJOX010000.06.2 (HIV-1)
# [3] = target: HIV-1 Env of pseudovirus 9004SS_A3_4 (HIV-1)
# [4] = target: HIV-1 Env of pseudovirus X1632_S2_B10 (HIV-1)
# [5] = target: HIV-1 Env of pseudovirus C4118.c09 (HIV-1)
# [6] = target: HIV-1 Env of pseudovirus T257-31 (HIV-1)
# [7] = target: HIV-1 Env of pseudovirus R1166.c01 (HIV-1)
# [8] = target: HIV-1 Env of pseudovirus X2131_C1_B5 (HIV-1)
# [9] = target: HIV-1 Env of pseudovirus 263-8 (HIV-1)
# [10] = target: HIV-1 Env of pseudovirus P0402_c2_11 (HIV-1)
# [11] = target: HIV-1 Env of pseudovirus CNE5 (HIV-1)
# [12] = target: HIV-1 Env of pseudovirus 6540.v4.c1 (HIV-1)
# [13] = target: HIV-1 Env of pseudovirus 6811.v7.c18 (HIV-1)
# [14] = target: HIV-1 Env of pseudovirus 6545.v4.c1 (HIV-1)
# [15] = target: HIV-1 Env of pseudovirus BJOX015000.11.5 (HIV-1)
# [16] = target: HIV-1 Env of pseudovirus 928-28 (HIV-1)
# [17] = target: HIV-1 Env of pseudovirus 89-F1_2_25 (HIV-1)
# [18] = target: HIV-1 Env of pseudovirus T278-50 (HIV-1)
substance,measurement,setting,value
N49P7.2 (antibody),IC50,[1],0.768 µg/mL
same,IC80,[1],2.32 µg/mL
same,MPI,[1],100
same,IC50,[2],0.267 µg/mL
same,IC80,[2],1.11 µg/mL
same,MPI,[2],100
same,IC50,[3],0.266 µg/mL
same,IC80,[3],1.62 µg/mL
same,MPI,[3],100
same,IC50,[4],> 50 µg/mL
same,IC80,[4],> 50 µg/mL
same,MPI,[4],22
same,IC50,[5],0.079 µg/mL
same,IC80,[5],0.292 µg/mL
same,MPI,[5],100
same,IC50,[6],0.627 µg/mL
same,IC80,[6],1.79 µg/mL
same,MPI,[6],100
same,IC50,[7],0.267 µg/mL
same,IC80,[7],0.852 µg/mL
same,MPI,[7],100
same,IC50,[8],0.161 µg/mL
same,IC80,[8],0.671 µg/mL
same,MPI,[8],100
same,IC50,[9],0.095 µg/mL
same,IC80,[9],0.641 µg/mL
same,MPI,[9],100
same,IC50,[10],0.106 µg/mL
same,IC80,[10],0.4 µg/mL
same,MPI,[10],100
same,IC50,[11],0.206 µg/mL
same,IC80,[11],0.893 µg/mL
same,MPI,[11],100
same,IC50,[12],> 50 µg/mL
same,IC80,[12],> 50 µg/mL
same,MPI,[12],33
same,IC50,[13],0.541 µg/mL
same,IC80,[13],2.55 µg/mL
same,MPI,[13],100
same,IC50,[14],> 50 µg/mL
same,IC80,[14],> 50 µg/mL
same,MPI,[14],4
same,IC50,[15],0.289 µg/mL
same,IC80,[15],1.26 µg/mL
same,MPI,[15],100
same,IC50,[16],0.347 µg/mL
same,IC80,[16],1.11 µg/mL
same,MPI,[16],100
same,IC50,[17],> 50 µg/mL
same,IC80,[17],> 50 µg/mL
same,MPI,[17],18
same,IC50,[18],> 50 µg/mL
same,IC80,[18],> 50 µg/mL
same,MPI,[18],33
N49P18.1 (antibody),IC50,[1],41.3 µg/mL
same,IC80,[1],> 50 µg/mL
same,MPI,[1],54
same,IC50,[2],> 50 µg/mL
same,IC80,[2],> 50 µg/mL
same,MPI,[2],39
same,IC50,[3],3.02 µg/mL
same,IC80,[3],13.9 µg/mL
same,MPI,[3],99
same,IC50,[4],> 50 µg/mL
same,IC80,[4],> 50 µg/mL
same,MPI,[4],19
same,IC50,[5],8.63 µg/mL
same,IC80,[5],23.2 µg/mL
same,MPI,[5],93
same,IC50,[6],> 50 µg/mL
same,IC80,[6],> 50 µg/mL
same,MPI,[6],48
same,IC50,[7],19.2 µg/mL
same,IC80,[7],> 50 µg/mL
same,MPI,[7],78
same,IC50,[8],30.4 µg/mL
same,IC80,[8],> 50 µg/mL
same,MPI,[8],75
same,IC50,[9],3.96 µg/mL
same,IC80,[9],41 µg/mL
same,MPI,[9],90
same,IC50,[10],5.47 µg/mL
same,IC80,[10],20.8 µg/mL
same,MPI,[10],98
same,IC50,[11],19.5 µg/mL
same,IC80,[11],> 50 µg/mL
same,MPI,[11],72
same,IC50,[12],> 50 µg/mL
same,IC80,[12],> 50 µg/mL
same,MPI,[12],35
same,IC50,[13],7.43 µg/mL
same,IC80,[13],31.9 µg/mL
same,MPI,[13],94
same,IC50,[14],> 50 µg/mL
same,IC80,[14],> 50 µg/mL
same,MPI,[14],0
same,IC50,[15],27.3 µg/mL
same,IC80,[15],> 50 µg/mL
same,MPI,[15],67
same,IC50,[16],22.7 µg/mL
same,IC80,[16],> 50 µg/mL
same,MPI,[16],71
same,IC50,[17],> 50 µg/mL
same,IC80,[17],> 50 µg/mL
same,MPI,[17],9
same,IC50,[18],> 50 µg/mL
same,IC80,[18],> 50 µg/mL
same,MPI,[18],36
